Test results taken from patent US20020035246A1 (VLAAMS INTERUNIVERSITAIR INSTITUUT VOOR BIOTECHNOLOGIE VZW, published 2002).

T1: SIP1 (TH1) prey protein (GAL4TAD fused to the 626 aa polypeptide encoded by th1 cDNA) (mouse, UniProt Q9R0G7 315-940, limits assumed)
T1 sequence: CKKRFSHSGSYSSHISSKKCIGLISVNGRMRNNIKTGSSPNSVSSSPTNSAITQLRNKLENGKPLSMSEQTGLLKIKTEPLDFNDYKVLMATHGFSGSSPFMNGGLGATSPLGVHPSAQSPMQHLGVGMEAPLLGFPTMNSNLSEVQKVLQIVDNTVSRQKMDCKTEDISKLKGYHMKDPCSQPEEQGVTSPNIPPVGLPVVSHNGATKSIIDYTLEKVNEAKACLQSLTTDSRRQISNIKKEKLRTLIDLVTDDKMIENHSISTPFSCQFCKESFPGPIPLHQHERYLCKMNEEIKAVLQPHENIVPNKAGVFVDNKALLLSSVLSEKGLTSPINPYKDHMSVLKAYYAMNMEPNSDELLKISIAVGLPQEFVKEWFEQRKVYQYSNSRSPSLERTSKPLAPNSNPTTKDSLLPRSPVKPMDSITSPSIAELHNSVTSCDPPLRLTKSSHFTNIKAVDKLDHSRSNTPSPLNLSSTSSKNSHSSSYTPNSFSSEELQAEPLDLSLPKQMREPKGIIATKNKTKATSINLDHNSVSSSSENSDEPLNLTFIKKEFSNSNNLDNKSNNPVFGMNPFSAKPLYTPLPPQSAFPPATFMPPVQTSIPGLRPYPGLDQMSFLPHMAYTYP

T2: TH72 prey protein (GAL4TAD fused in-frame to a partial SMAD4 starting at amino acid 252) (mouse, UniProt P97471 252-551, limits assumed)
T2 construct: Only the start (aa 252) is stated; the C-terminal end of the clone is not; also called TH72 (DPC4 or SMAD4); partial DPC-4 (SMAD4)
T2 sequence (looked up): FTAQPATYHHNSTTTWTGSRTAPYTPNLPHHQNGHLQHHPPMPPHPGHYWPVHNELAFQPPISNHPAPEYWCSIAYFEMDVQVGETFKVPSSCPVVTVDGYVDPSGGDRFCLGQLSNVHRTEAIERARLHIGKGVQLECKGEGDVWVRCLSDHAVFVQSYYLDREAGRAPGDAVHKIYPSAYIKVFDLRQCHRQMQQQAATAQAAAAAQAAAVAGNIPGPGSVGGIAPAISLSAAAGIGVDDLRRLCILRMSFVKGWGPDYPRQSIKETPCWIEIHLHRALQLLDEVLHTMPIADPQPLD

B1: Lamin (pLAM; Clontech) (other, UniProt P02545 66-230, looked up)
chain: SEEVVSREVSGIKAAYEAELGDARKTLDSVAKERARLQLELSKVREEFKELKARNTKKEGDLIAAQARLKDLEALLNSKEAALSTALSEKRTLEGELHDLRGQVAKLEAALGEAKKQLQDEMLRRVDAENRLQTMKEELDFQKNIYSEELRETKRRHETRLVEID
notes: Bought control bait plasmid

How the values were obtained:
Assay in all cases: yeast two-hybrid
[1] = molecular target: T1, SIP1 (TH1) prey protein (GAL4TAD fused …)
[2] = molecular target: T2, TH72 prey protein (GAL4TAD fused …)
[3] = molecular target: T3, Empty bait vector pGBT9 (GAL-4 DBD alone) (UniProt P04386 1-147)
T3 construct: Negative control bait; also called empty bait (i.e., GAL-4 DBD alone)

Lamin (pLAM; Clontech) = molecular target: B1

T3 sequence (P04386 1-147 limits assumed): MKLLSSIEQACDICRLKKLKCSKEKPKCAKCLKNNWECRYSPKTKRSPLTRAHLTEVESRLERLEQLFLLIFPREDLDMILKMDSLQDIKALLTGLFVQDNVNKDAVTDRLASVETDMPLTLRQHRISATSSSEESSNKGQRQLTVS

| Binder | binding result [1] | binding result [2] | binding result [3] | binding result (Lamin (pLAM; Clontech)) |
| --- | --- | --- | --- | --- |
| B1 | no binding | no binding |  |  |
| SIP7 prey protein (th74; partial open reading frame fused to the GAL4 transactivating domain in pACT2) (other, not shown: small tags and cut ends) TEPVRTDRRTEDQTATKERLLPPSGPLPRTPAPAPVTAPDTARCAVLAARHGRALSPGPRALAPSAQRCCPASGRAAETPASVGAGALRVGPAQPSQARQPTMLLLSPRSALVSVYCPQIFLLLSTAVTTLSSVVALGANIICNKIPGLAPRQRAICQSRPDAIIVIGEGAQMGIDECQHQFRFGRWNCSALGEKTVFGQELRVGSREAAFTYAITAAGVAHAVTAACSQGNLSNCGCDREKQGYYNQAEGWKWGGCSADVRYGIDFSRRFVDAREIKKNAGS |  |  | no binding | no binding |
